Measurements: article PMC6159521

Molecular target: His-DnaNCg (Corynebacterium glutamicum sliding clamp, beta-clamp), purified (Corynebacterium glutamicum)
Assay: BLI

| Substance | Kd [nM] |
| --- | --- |
| EndoMSCg (Corynebacterium glutamicum EndoMS/NucS), wild type, purified untagged protein (enzyme) | 185 |
| EndoMSCg D144A mutant protein (enzyme) | 182 |
